# From doi:10.1101/209809 (bioRxiv, 2017)
# T1: N-terminal region of human WDR33 (residues 1-572) (human, UniProt Q9C0J8 1-572)
# T1 sequence (looked up): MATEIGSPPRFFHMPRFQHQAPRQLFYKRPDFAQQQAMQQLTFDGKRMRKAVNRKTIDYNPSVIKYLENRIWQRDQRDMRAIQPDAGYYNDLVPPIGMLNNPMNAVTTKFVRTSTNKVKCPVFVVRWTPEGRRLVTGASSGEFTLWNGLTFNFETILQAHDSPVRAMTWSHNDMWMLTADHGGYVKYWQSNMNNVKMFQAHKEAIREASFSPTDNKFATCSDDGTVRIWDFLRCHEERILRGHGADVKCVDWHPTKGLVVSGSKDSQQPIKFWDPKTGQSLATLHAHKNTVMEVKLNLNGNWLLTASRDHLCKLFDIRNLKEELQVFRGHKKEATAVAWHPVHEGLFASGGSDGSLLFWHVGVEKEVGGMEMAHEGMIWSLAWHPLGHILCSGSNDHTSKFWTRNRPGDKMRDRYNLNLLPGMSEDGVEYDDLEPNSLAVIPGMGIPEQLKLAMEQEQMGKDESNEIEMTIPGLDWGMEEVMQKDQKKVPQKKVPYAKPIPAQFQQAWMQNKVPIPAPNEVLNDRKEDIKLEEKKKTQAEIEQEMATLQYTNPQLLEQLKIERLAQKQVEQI
# B1: full-length human CPSF-30 (isoform 2), MBP removed by TEV protease (natural protein, UniProt O95639-2 1-244, looked up)
# chain: MQEIIASVDHIKFDLEIAVEQQLGAQPLPFPGMDKSGAAVCEFFLKAACGKGGMCPFRHISGEKTVVCKHWLRGLCKKGDQCEFLHEYDMTKMPECYFYSKFGECSNKECPFLHIDPESKIKDCPWYDRGFCKHGPLCRHRHTRRVICVNYLVGFCPEGPSCKFMHPRFELPMGTTEQPPLPQQTQPPAKQRTPQVIGVMQSQNSSAGNRGPRPLEQVTCYKCGEKGHYANRCTKGHLAFLSGQ
# Assays:
# [1] = molecular target: T2, CPSF-160;WDR33 (1-572);CPSF-30 (human;human;human, UniProt Q10570;Q9C0J8;O95639-2 1-1443;1-572;1-244, ||); test: EMSA
# T2 sequence (Q10570 whole entry, one chain of several): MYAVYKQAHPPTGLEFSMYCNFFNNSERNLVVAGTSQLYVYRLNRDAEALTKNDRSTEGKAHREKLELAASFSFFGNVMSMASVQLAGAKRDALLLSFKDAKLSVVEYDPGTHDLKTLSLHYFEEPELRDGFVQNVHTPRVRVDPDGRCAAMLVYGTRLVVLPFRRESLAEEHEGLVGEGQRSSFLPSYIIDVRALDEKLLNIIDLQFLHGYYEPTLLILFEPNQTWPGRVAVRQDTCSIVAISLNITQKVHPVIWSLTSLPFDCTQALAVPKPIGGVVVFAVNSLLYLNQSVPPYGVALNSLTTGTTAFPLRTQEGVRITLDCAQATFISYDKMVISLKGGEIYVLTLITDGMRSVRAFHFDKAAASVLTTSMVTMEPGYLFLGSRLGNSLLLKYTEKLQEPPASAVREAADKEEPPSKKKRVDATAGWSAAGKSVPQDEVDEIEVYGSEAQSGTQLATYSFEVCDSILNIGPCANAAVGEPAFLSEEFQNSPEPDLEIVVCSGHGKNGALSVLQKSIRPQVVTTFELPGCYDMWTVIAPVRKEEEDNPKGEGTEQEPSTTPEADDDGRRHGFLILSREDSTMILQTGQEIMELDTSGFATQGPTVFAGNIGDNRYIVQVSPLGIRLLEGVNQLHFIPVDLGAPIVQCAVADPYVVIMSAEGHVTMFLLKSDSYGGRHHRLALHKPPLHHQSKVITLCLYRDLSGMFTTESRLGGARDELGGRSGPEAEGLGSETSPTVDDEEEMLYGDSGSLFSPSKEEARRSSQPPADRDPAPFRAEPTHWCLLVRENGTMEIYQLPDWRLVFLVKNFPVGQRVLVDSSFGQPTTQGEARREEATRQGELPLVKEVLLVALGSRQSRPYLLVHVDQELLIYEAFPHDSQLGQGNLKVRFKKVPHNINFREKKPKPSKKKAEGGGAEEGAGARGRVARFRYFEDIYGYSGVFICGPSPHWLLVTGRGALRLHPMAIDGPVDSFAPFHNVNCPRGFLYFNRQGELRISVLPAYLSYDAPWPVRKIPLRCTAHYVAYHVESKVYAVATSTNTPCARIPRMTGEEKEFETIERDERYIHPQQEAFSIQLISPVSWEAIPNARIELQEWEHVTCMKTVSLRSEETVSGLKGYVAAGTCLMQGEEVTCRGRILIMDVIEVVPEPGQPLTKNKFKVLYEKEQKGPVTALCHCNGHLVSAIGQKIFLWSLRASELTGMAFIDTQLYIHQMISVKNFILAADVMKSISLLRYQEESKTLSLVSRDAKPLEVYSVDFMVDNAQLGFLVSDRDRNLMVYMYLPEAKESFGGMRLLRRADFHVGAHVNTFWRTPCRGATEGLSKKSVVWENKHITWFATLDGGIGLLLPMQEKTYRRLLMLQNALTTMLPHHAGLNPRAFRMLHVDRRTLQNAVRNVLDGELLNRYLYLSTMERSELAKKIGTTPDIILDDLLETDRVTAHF
# [2] = molecular target: CPSF-160;WDR33 (1-572);MBP-CPSF-30(33-170) (human;human;human, UniProt Q10570;Q9C0J8;O95639-2 1-1443;1-572;33-170, ||); test: EMSA
# CPSF-160;WDR33 (1-572);MBP-CPSF-30(33-170), sequence (Q10570 whole entry, chain 1 of 2, one chain of several): as the sequence (Q10570 whole entry, one chain of several) above
# [3] = molecular target: T2, CPSF-160;WDR33 (1-572);CPSF-30; test: cryo-EM structure
# [4] = molecular target: CPSF-160–WDR33 binary complex (human, UniProt Q10570 1-1443; Q9C0J8 1-572); test: cryo-EM structure
# CPSF-160–WDR33 binary complex, sequence (Q10570 whole entry, one chain of several): as above
# [5] = molecular target: T1, N-terminal region of human WDR33 …; test: cryo-EM structure
binder,measurement,setting,value
AACCUCCAAUAAACAAC (ssRNA) [17-mer PAS RNA (AAUAAA)],binding result,[1],binds
same,binding result,[2],binds
"AACCUCCAAUAAACAAC (ssRNA) [17-mer PAS RNA, unlabeled (EM)]",binding result,[3],binds
B1,binding result,[4],binds
same,binding result,[5],binds
